According to IntAct's records for PubMed 20042240:

B1: Complement factor H-related protein 4 (Homo sapiens), Q92496-1 (parent)
chain: MLLLINVILTLWVSCANGQEVKPCDFPEIQHGGLYYKSLRRLYFPAAAGQSYSYYCDQNFVTPSGSYWDYIHCTQDGWSPTVPCLRTCSKSDVEIENGFISESSSIYILNEETQYNCKPGYATAEGNSSGSITCLQNGWSTQPICIKFCDMPVFENSRAKSNGMWFKLHDTLDYECYDGYESSYGNTTDSIVCGEDGWSHLPTCYNSSENCGPPPPISNGDTTSFPQKVYLPWSRVEYQCQSYYELQGSKYVTCSNGDWSEPPRCISMKPCEFPEIQHGHLYYENTRRPYFPVATGQSYSYYCDQNFVTPSGSYWDYIHCTQDGWLPTVPCLRTCSKSDIEIENGFISESSSIYILNKEIQYKCKPGYATADGNSSGSITCLQNGWSAQPICIKFCDMPVFENSRAKSNGMRFKLHDTLDYECYDGYEISYGNTTGSIVCGEDGWSHFPTCYNSSEKCGPPPPISNGDTTSFLLKVYVPQSRVEYQCQSYYELQGSNYVTCSNGEWSEPPRCIHPCIITEENMNKNNIQLKGKSDIKYYAKTGDTIEFMCKLGYNANTSVLSFQAVCREGIVEYPRCE
partner: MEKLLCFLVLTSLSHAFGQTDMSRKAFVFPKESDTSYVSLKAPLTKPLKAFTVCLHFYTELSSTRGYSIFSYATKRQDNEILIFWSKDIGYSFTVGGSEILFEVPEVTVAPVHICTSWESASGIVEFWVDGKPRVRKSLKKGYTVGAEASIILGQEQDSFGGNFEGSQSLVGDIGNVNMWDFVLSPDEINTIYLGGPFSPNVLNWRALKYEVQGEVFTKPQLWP

Experiments:
Details in all cases: with crp_human CRP
crp_human CRP, P02741 [1] = variants of: B1
crp_human CRP, P02741 [2] = variants of: B1; remark: listed apart in the source
crp_human CRP, P02741 [3] = variants of: B1; remark: listed apart in the source

Row | effect of a mutation on the interaction (crp_human CRP, P02741 [1]) | effect of a mutation on the interaction (crp_human CRP, P02741 [2]) | effect of a mutation on the interaction (crp_human CRP, P02741 [3]) | Variant
1 | decreasing interaction strength | disrupting interaction strength | – | MLLLINVILTLWVSCANGQEVKPCDFPEIQHGGLAAKSLRRLYFPAAAGQSYSYYCDQNFVTPSGSYWDYIHCTQDGWSPTVPCLRTCSKSDVEIENGFISESSSIYILNEETQYNCKPGYATAEGNSSGSITCLQNGWSTQPICIKFCDMPVFENSRAKSNGMWFKLHDTLDYECYDGYESSYGNTTDSIVCGEDGWSHLPTCYNSSENCGPPPPISNGDTTSFPQKVYLPWSRVEYQCQSYYELQGSKYVTCSNGDWSEPPRCISMKPCEFPEIQHGHLYYENTRRPYFPVATGQSYSYYCDQNFVTPSGSYWDYIHCTQDGWLPTVPCLRTCSKSDIEIENGFISESSSIYILNKEIQYKCKPGYATADGNSSGSITCLQNGWSAQPICIKFCDMPVFENSRAKSNGMRFKLHDTLDYECYDGYEISYGNTTGSIVCGEDGWSHFPTCYNSSEKCGPPPPISNGDTTSFLLKVYVPQSRVEYQCQSYYELQGSNYVTCSNGEWSEPPRCIHPCIITEENMNKNNIQLKGKSDIKYYAKTGDTIEFMCKLGYNANTSVLSFQAVCREGIVEYPRCE [Y35A;Y36A]
2 | disrupting interaction strength | – | – | MLLLINVILTLWVSCANGQEVKPCDFPEIQHGGLYYAALRRLYFPAAAGQSYSYYCDQNFVTPSGSYWDYIHCTQDGWSPTVPCLRTCSKSDVEIENGFISESSSIYILNEETQYNCKPGYATAEGNSSGSITCLQNGWSTQPICIKFCDMPVFENSRAKSNGMWFKLHDTLDYECYDGYESSYGNTTDSIVCGEDGWSHLPTCYNSSENCGPPPPISNGDTTSFPQKVYLPWSRVEYQCQSYYELQGSKYVTCSNGDWSEPPRCISMKPCEFPEIQHGHLYYENTRRPYFPVATGQSYSYYCDQNFVTPSGSYWDYIHCTQDGWLPTVPCLRTCSKSDIEIENGFISESSSIYILNKEIQYKCKPGYATADGNSSGSITCLQNGWSAQPICIKFCDMPVFENSRAKSNGMRFKLHDTLDYECYDGYEISYGNTTGSIVCGEDGWSHFPTCYNSSEKCGPPPPISNGDTTSFLLKVYVPQSRVEYQCQSYYELQGSNYVTCSNGEWSEPPRCIHPCIITEENMNKNNIQLKGKSDIKYYAKTGDTIEFMCKLGYNANTSVLSFQAVCREGIVEYPRCE [K37A;S38A]
3 | disrupting interaction strength | – | decreasing interaction strength | MLLLINVILTLWVSCANGQEVKPCDFPEIQHGGLYYASLAALYFPAAAGQSYSYYCDQNFVTPSGSYWDYIHCTQDGWSPTVPCLRTCSKSDVEIENGFISESSSIYILNEETQYNCKPGYATAEGNSSGSITCLQNGWSTQPICIKFCDMPVFENSRAKSNGMWFKLHDTLDYECYDGYESSYGNTTDSIVCGEDGWSHLPTCYNSSENCGPPPPISNGDTTSFPQKVYLPWSRVEYQCQSYYELQGSKYVTCSNGDWSEPPRCISMKPCEFPEIQHGHLYYENTRRPYFPVATGQSYSYYCDQNFVTPSGSYWDYIHCTQDGWLPTVPCLRTCSKSDIEIENGFISESSSIYILNKEIQYKCKPGYATADGNSSGSITCLQNGWSAQPICIKFCDMPVFENSRAKSNGMRFKLHDTLDYECYDGYEISYGNTTGSIVCGEDGWSHFPTCYNSSEKCGPPPPISNGDTTSFLLKVYVPQSRVEYQCQSYYELQGSNYVTCSNGEWSEPPRCIHPCIITEENMNKNNIQLKGKSDIKYYAKTGDTIEFMCKLGYNANTSVLSFQAVCREGIVEYPRCE [K37A;R40A;R41A]

The next lines start with the variant.

Row | Variant | effect of a mutation on the interaction (crp_human CRP, P02741 [1]) | effect of a mutation on the interaction (crp_human CRP, P02741 [2]) | effect of a mutation on the interaction (crp_human CRP, P02741 [3])
4 | MLLLINVILTLWVSCANGQEVKPCDFPEIQHGGLYYAAARRLYFPAAAGQSYSYYCDQNFVTPSGSYWDYIHCTQDGWSPTVPCLRTCSKSDVEIENGFISESSSIYILNEETQYNCKPGYATAEGNSSGSITCLQNGWSTQPICIKFCDMPVFENSRAKSNGMWFKLHDTLDYECYDGYESSYGNTTDSIVCGEDGWSHLPTCYNSSENCGPPPPISNGDTTSFPQKVYLPWSRVEYQCQSYYELQGSKYVTCSNGDWSEPPRCISMKPCEFPEIQHGHLYYENTRRPYFPVATGQSYSYYCDQNFVTPSGSYWDYIHCTQDGWLPTVPCLRTCSKSDIEIENGFISESSSIYILNKEIQYKCKPGYATADGNSSGSITCLQNGWSAQPICIKFCDMPVFENSRAKSNGMRFKLHDTLDYECYDGYEISYGNTTGSIVCGEDGWSHFPTCYNSSEKCGPPPPISNGDTTSFLLKVYVPQSRVEYQCQSYYELQGSNYVTCSNGEWSEPPRCIHPCIITEENMNKNNIQLKGKSDIKYYAKTGDTIEFMCKLGYNANTSVLSFQAVCREGIVEYPRCE [K37A;S38A;L39A] | disrupting interaction strength | – | –
5 | MLLLINVILTLWVSCANGQEVKPCDFPEIQHGGLYYASLRRLYFPAAAGQSYSYYCDQNFVTPSGSYWDYIHCTQDGWSPTVPCLRTCSKSDVEIENGFISESSSIYILNEETQYNCKPGYATAEGNSSGSITCLQNGWSTQPICIKFCDMPVFENSRAKSNGMWFKLHDTLDYECYDGYESSYGNTTDSIVCGEDGWSHLPTCYNSSENCGPPPPISNGDTTSFPQKVYLPWSRVEYQCQSYYELQGSKYVTCSNGDWSEPPRCISMKPCEFPEIQHGHLYYENTRRPYFPVATGQSYSYYCDQNFVTPSGSYWDYIHCTQDGWLPTVPCLRTCSKSDIEIENGFISESSSIYILNKEIQYKCKPGYATADGNSSGSITCLQNGWSAQPICIKFCDMPVFENSRAKSNGMRFKLHDTLDYECYDGYEISYGNTTGSIVCGEDGWSHFPTCYNSSEKCGPPPPISNGDTTSFLLKVYVPQSRVEYQCQSYYELQGSNYVTCSNGEWSEPPRCIHPCIITEENMNKNNIQLKGKSDIKYYAKTGDTIEFMCKLGYNANTSVLSFQAVCREGIVEYPRCE [K37A] | decreasing interaction strength | disrupting interaction strength | –
6 | MLLLINVILTLWVSCANGQEVKPCDFPEIQHGGLYYKALRRLYFPAAAGQSYSYYCDQNFVTPSGSYWDYIHCTQDGWSPTVPCLRTCSKSDVEIENGFISESSSIYILNEETQYNCKPGYATAEGNSSGSITCLQNGWSTQPICIKFCDMPVFENSRAKSNGMWFKLHDTLDYECYDGYESSYGNTTDSIVCGEDGWSHLPTCYNSSENCGPPPPISNGDTTSFPQKVYLPWSRVEYQCQSYYELQGSKYVTCSNGDWSEPPRCISMKPCEFPEIQHGHLYYENTRRPYFPVATGQSYSYYCDQNFVTPSGSYWDYIHCTQDGWLPTVPCLRTCSKSDIEIENGFISESSSIYILNKEIQYKCKPGYATADGNSSGSITCLQNGWSAQPICIKFCDMPVFENSRAKSNGMRFKLHDTLDYECYDGYEISYGNTTGSIVCGEDGWSHFPTCYNSSEKCGPPPPISNGDTTSFLLKVYVPQSRVEYQCQSYYELQGSNYVTCSNGEWSEPPRCIHPCIITEENMNKNNIQLKGKSDIKYYAKTGDTIEFMCKLGYNANTSVLSFQAVCREGIVEYPRCE [S38A] | with no effect | decreasing interaction strength | –
